What all share (assay type): biochemical, Cupriavidus pinatubonensis
Substrate in data set [1]: O=CC(O)CS(=O)(=O)O
As to the kind of experiment: Michaelis-Menten kinetics (apparent KM); LCMS product. The following applies: Zn2+, NAD+.

Substrate in the data set “purified protein”: O=S(=O)(O)C[C@H](O)CO
As to the kind of experiment: purified protein. The settings on record: Zn2+, NAD+.

Substrate in data set [2]: NC(=O)c1ccc[n+]([C@@H]2O[C@H](COP(=O)([O-])OP(=O)(O)OC[C@H]3O[C@@H](n4cnc5c(N)ncnc54)[C@H](O)[C@@H]3O)[C@@H](O)[C@H]2O)c1
Briefly: X-ray crystal structure by soaking (open conformation); Michaelis-Menten kinetics (apparent KM). The settings on record: Zn2+ nonproductive complex; nicotinamide group disordered, modelled with zero occupancy; varied: cofactor.

B1: DHPS-3-dehydrogenase (CpHpsN) (Cupriavidus pinatubonensis JMP134) (protein)
chain: MISYLKKAEKTPQTETATAQKVVTEMLAEIQARGKDAVRQYAKQLDGWSGDIVLTPDQIREQTKDVPAGVRADIDFAIRQVTDFALAQRESLKEFSVELHPGVTAGQRVLPVNVVGCYAPAGRYAHIASAYMGVATAKAAGVKTVVACSSPFRGQGIHPHVLYAFQAAGADVIMALGGVQAIASMAYGLFTGKPADVVVGPGNKFVAEAKRSLYGQVGIDVFAGPSEVAVIADETADPAIVASDLVGQAEHGHESPAWLFTTSRDLADRVMALVPELIAKLPPTARDAATAAWRDYGEVILCGTREEVVEISDRYASEHLEVHTADLDWWLANLTCYGSLFLGEETTVAFGDKTSGPNHVLPTKGAARYSGGLSVHKFMKTLTWQQMTREATRQIGQVTARISRLEGMEAHARTADDRMAKYFPNASFEMGTPVEV
On to B1, for which the Km amounted to 360 ± 60 µM in data set [1], 1300 ± 150 µM in “purified protein” and 470 ± 100 µM in data set [2]. Also, the catalytic efficiency (kcat/Km) in data set [1] worked out at 8600 ± 830 M⁻¹ s⁻¹; in “purified protein”, 750 ± 200 M⁻¹ s⁻¹; in data set [2], 3400 ± 1100 M⁻¹ s⁻¹.

Usually Km stands for the concentration of substrate that gives half-maximal velocity. A word on the kcat/Km: it is the second-order rate constant that governs catalysis at low substrate concentration.
